Biological target: MtrAB complex (Shewanella oneidensis MR-1)
Assay: AUC; sedimentation equilibrium (SE-AUC), 20°C, 8,000, 10,000 and 12,000 rpm, absorbance at 410 nm; 50 mM sodium phosphate, 50 mM NaCl, 0.1% (v/v) Triton X-100, pH 7.5; 0.4 uM single proteins, 0.25 uM + 0.25 uM mixture; fits to a single non-interacting species

- stoichiometry N (Ru-MtrC per MtrAB): 1
Substance: Ru-MtrC (soluble Y657C MtrC labelled at Cys657 with a Ru(II)-bipyridine dye) (from UniProt Q8EG34 26-671) (natural protein)

Reference: paper PMC8415449
